Where two headings read alike, the source gives them in different places.
Legend:
[1] = target: 319C07 (Potravitug), human IgG monoclonal antibody (human); assay: BLI
[2] = target: BKPyV VP1 pentameric core (residues 26-297) (BK polyomavirus (BKPyV)) (UniProt P03088); assay: crystal structure
[3] = target: BKPyV VP1 pentamer, genotype III-AS (M23122), ALFA-tagged (BK polyomavirus (BKPyV), strain AS, UniProt P14996); assay: BLI
[4] = target: T1, BKPyV VP1 pentameric core (residues 26-297) (BK polyomavirus, strain ; …, UniProt P03088); assay: crystal structure
[5] = target: T1, BKPyV VP1 pentameric core (residues …); assay: crystal structure; remark: listed apart in the source
[6] = target: T1, BKPyV VP1 pentameric core (residues …); assay: crystal structure; remark: listed apart in the source

Molecule: BKPyV VP1 single-point mutant K69N in the Dunlop background (from UniProt P03088 1-362) (natural protein)
- Kd [1]: 4.5 µM
- fold reduction of affinity against the Dunlop background [1]: > 1000 fold

Molecule: BKPyV VP1 pentameric core (residues 26-297) (from UniProt P03088 26-297) (domain or fragment)
- stoichiometry N [2]: 5

B1: 319C07 (Potravitug), human IgG monoclonal antibody (antibody, V domains shown)
VH: QVQLQQWGAGLLKPSETLSLTCAVYRGSFSAYYWTWFRQPPGKGLEWIGEINHRGYTNYNPSLRGRVSISVDTSKKQFSLKLRSVNAADTAVYYCATLRSTSGWHDYFDYWGQGTLVTVSS
VL: EIVLTQSPGTLSLSPGERATLSCRASQSVSSSYLAWYQQTPGQAPRLLIYGASSRATGIPDRFSGSGSGTDFTLTISRLEPEDFVVYFCLQYGSSPLTFGPGTKVDIK
- binding result [3]: binds

B2: Potravitug single-chain variable fragment (scFv-319C07) (scFv, V domains shown)
VH: B1 VH
VL: B1 VL
- stoichiometry N [4]: 3 scFv per VP1 pentamer

B3: ORT-VHH16 (VHH)
VHH: EVQLVESGGGLVQAGGSLRLSCAASGRTFDHYAMGWFRQAPGKERELVARISSGGGTTNYADSVKGRFTISRDNAKNTVSLQMNSLKPEDTAVYYCVGEIQYGTRYYWGQGTQVTVSS
- stoichiometry N [5]: 1 nanobody per VP1 monomer

B4: ORT-VHH17 (VHH)
VHH: EVQLVESGGGLVQAGGSLRLSCAASGRDLSNYDMGWFRQAPGKEREFVATIKWRSGGTNHAESVKGRFTISRDNAKNTVYLQMSSLKPEDTAVYYCAAAPNWLGYSFKVDDYIYWGQGTQVTVSS
- stoichiometry N [6]: 1 nanobody per VP1 monomer

Source: doi:10.1101/2025.08.09.669497 (bioRxiv, 2025)
